This is an account of results in paper PMC6156364, “Bioinformatic and in vitro Analyses of Arabidopsis Starch Synthase 2 Reveal Post-translational Regulatory Mechanisms” (Frontiers in Plant Science, 2018).

What all share (assay): SEC; gel permeation chromatography of ArcticExpress bacterial lysates on Superdex 20/300 GL in rupturing buffer (20 mM Tricine pH 7.5, 7.5 mM MgCl2, 1 mM DTT), 0.25 ml/min; fractions immunoblotted with anti-S-tag; wild type also pretreated with CKII + 1 mM ATP or with CIP
The target of data set [1] is recombinant S-tagged Arabidopsis SS2 N-terminal region polypeptide (NT) (Arabidopsis thaliana) (UniProt Q9MAC8).
Data set [2] deals with recombinant S-tagged Arabidopsis SS2 N-terminal truncation TRU1 (Arabidopsis thaliana) (UniProt Q9MAC8).
Data set [3] concerns the molecule itself.

Regarding “recombinant S-tagged Arabidopsis SS2 N-terminal region polypeptide (NT) (from UniProt Q9MAC8 56-240) (domain or fragment)”, the stoichiometry N in data set [1] is above 6. Turning to “recombinant S-tagged Arabidopsis SS2 N-terminal truncation TRU1 (from UniProt Q9MAC8 57-792) (domain or fragment)”, in data set [2], the stoichiometry N is 2.

B1: recombinant S-tagged mature Arabidopsis thaliana starch synthase 2 (wild type) (enzyme, UniProt Q9MAC8 55-792, looked up)
chain: KCVSRVEASGSDDDEPEDALQATIDKSKKVLAMQRNLLHQIAERRKLVSSIKESTPDLDDAKASSKQESASSVNANTDATKKEIMDGDANGSVSPSTYGKSSLSKEPEAKTFSPSTESLKNRKQSSASVISSSPVTSPQKPSDVATNGKPWSSVVASSVDPPYKPSSVMTSPEKTSDPVTSPGKPSKSRAGAFWSDPLPSYLTKAPQTSTMKTEKYVEKTPDVASSETNEPGKDEEKPPPLAGANVMNVILVAAECAPFSKTGGLGDVAGALPKSLARRGHRVMVVVPRYAEYAEAKDLGVRKRYKVAGQDMEVMYFHAFIDGVDFVFIDSPEFRHLSNNIYGGNRLDILKRMVLFCKAAVEVPWYVPCGGVCYGDGNLAFIANDWHTALLPVYLKAYYRDHGIMKYTRSVLVIHNIAHQGRGPVDDFSYVDLPSHYLDSFKLYDPVGGEHFNIFAAGLKAADRVLTVSHGYSWEVKTLEGGWGLHNIINENDWKFRGIVNGIDTQEWNPEFDTYLHSDDYTNYSLENLHIGKPQCKAALQKELGLPVRPDVPLIGFIGRLDHQKGVDLIAEAVPWMMSQDVQLVMLGTGRPDLEEVLRQMEHQYRDKARGWVGFSVKTAHRITAGADILLMPSRFEPCGLNQLYAMNYGTIPVVHAVGGLRDTVQQFDPYSETGLGWTFDSAEAGKLIHALGNCLLTYREYKESWEGLQRRGMTQDLSWDNAAEKYEEVLVAAKYHW
notes: Cloned into pET29a; Predicted 85 kDa; also called SS2; AtSS2; source: E. coli ArcticExpress; in bacterial lysate (GPC); not shown: S-tag, N-terminal, kept
With B1, the “stoichiometry N” value in data set [3] is 2.
